How the values were obtained:
[1] = molecular target: 6×His-thioredoxin-fused ZAD domain of Zw5 (aa 1–103) (Drosophila melanogaster); assay: cross-linking
[2] = molecular target: the molecule itself; assay: cross-linking

stoichiometry N [1]	Molecule	stoichiometry N [2]
2	6×His-thioredoxin-fused ZAD domain of Zw5 (aa 1–103) (domain or fragment)	
	6×His-thioredoxin-fused ZAD domain of Grauzone (aa 1–84) (domain or fragment, Drosophila melanogaster, UniProt Q9U405 1-84, looked up) MDICRLCLRGVSGAQMCLQIFDVDSGESKVAEVLRQHFWFEVLPNDEISKVICNVCWTQVSEFHQFYVSIQEAQVIYATTSKFK	2
	6×His-thioredoxin-fused ZAD domain of Pita (aa 1–109) (domain or fragment, Drosophila melanogaster, UniProt Q95RQ8 1-109, looked up) MAAKLEVREAMLTEKRVCRFCLTEQKLASIFEENPRVKTTANLPLQIMAITAIEVYAGDGMPGHICLECRLLFEHCYRFKQMCKRAETLLRQYPLTGNWPSPLEKPRAP	2
	6×His-thioredoxin-fused ZAD domain of ZIPIC (aa 3–81) (domain or fragment, Drosophila, UniProt Q9VAB8 3-81, looked up) CCICQFSVRVPKDIHTDTVGHPPVLISELVLQCTRGTNYVLTEESSTICKKCCEKLARYHKSIQIARKLRGEILELIHS	2

Reference: publication PMC5009728 (Nucleic Acids Research, 2016)
